What all share (assay): EC50 of free RNA motif oligo competing protein binding to immobilised probe
In one data set the target is T1, RBM7 (UniProt Q9Y580).
T1 sequence: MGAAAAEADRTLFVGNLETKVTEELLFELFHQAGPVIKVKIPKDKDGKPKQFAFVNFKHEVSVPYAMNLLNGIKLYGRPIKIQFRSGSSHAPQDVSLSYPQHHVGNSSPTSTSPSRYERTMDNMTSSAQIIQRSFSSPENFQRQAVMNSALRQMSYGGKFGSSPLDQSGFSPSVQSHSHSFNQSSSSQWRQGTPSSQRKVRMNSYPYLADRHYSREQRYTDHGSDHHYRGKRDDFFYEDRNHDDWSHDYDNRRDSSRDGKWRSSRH
Put shortly: (§1)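 HEK293-FT lysate (2.5 mg protein/well) was pre-incubated 1 h at 4°C with free RNA oligos (0 nM to 30 μM), then 30 min at 4°C with the same 5′-amino-C6 oligos coupled to NHS-Sepharose beads. Bound proteins were quantified by label-free LC-MS/MS in three biological replicates and two independent experiments, and normalised to the water control. EC50 came from a four-parameter log-logistic fit; Kd is EC50 times a protein-dependent depletion factor.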

The target of a further data set is T2, HNRNPDL (UniProt O14979).
T2 sequence: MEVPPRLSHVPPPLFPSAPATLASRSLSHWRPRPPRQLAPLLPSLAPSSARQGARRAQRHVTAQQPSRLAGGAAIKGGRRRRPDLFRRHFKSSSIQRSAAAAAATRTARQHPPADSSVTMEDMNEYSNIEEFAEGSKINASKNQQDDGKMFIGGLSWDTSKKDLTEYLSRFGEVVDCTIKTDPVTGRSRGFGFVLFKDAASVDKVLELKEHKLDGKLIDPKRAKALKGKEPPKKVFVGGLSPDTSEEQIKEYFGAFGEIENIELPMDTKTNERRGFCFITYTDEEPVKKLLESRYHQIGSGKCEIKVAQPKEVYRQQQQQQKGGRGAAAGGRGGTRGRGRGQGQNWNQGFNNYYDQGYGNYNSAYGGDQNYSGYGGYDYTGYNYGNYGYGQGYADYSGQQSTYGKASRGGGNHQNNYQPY
The essentials:
as §1

The target of another data set is PABPC4 (UniProt Q13310). Put shortly: as §1
For another data set, the target named is T3, RBMS1 (UniProt P29558).
T3 sequence: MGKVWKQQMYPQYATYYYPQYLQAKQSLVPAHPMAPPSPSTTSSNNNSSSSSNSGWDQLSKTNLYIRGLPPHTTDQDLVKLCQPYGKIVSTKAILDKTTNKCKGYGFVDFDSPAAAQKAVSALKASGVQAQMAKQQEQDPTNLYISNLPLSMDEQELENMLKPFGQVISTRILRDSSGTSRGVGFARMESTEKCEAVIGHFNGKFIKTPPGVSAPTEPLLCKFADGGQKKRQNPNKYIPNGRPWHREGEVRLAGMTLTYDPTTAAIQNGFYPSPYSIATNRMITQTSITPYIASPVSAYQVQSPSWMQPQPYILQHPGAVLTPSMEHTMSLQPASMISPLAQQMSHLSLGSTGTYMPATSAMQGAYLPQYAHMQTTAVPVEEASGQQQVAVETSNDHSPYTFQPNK
Put shortly: as §1

In the next data set the target is T4, LSM4 (UniProt Q9Y4Z0).
T4 sequence: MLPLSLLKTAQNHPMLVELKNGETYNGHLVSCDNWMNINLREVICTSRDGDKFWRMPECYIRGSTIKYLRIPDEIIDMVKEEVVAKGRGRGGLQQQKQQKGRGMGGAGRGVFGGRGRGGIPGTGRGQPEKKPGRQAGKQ
The essentials: as §1

The next data set concerns the target T5, CSTF2 (UniProt P33240).
T5 sequence: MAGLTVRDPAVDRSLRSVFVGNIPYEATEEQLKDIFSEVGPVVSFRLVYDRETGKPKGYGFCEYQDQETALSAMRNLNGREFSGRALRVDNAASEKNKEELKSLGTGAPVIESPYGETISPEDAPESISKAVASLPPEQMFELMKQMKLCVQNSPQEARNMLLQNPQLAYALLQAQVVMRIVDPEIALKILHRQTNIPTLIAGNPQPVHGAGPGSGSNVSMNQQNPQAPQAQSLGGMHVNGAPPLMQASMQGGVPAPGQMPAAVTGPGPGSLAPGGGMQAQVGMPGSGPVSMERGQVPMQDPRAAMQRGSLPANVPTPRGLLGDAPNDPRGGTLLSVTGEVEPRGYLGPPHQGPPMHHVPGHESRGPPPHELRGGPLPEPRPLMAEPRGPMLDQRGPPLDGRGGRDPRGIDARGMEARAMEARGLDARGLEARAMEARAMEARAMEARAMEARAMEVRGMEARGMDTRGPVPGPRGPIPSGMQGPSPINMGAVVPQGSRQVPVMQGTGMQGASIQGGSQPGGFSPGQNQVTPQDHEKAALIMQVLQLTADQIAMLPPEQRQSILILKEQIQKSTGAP
The essentials: as §1

The target of another data set is T6, LSM7 (UniProt Q9UK45).
T6 sequence: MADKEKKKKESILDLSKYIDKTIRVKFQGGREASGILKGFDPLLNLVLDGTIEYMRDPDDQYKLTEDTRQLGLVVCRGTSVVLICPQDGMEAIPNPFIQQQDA
The essentials:
as §1

For a further data set, the target named is XRN1 (UniProt Q8IZH2). Put shortly:
as §1

Chain of PABPC4 (Q13310 whole entry): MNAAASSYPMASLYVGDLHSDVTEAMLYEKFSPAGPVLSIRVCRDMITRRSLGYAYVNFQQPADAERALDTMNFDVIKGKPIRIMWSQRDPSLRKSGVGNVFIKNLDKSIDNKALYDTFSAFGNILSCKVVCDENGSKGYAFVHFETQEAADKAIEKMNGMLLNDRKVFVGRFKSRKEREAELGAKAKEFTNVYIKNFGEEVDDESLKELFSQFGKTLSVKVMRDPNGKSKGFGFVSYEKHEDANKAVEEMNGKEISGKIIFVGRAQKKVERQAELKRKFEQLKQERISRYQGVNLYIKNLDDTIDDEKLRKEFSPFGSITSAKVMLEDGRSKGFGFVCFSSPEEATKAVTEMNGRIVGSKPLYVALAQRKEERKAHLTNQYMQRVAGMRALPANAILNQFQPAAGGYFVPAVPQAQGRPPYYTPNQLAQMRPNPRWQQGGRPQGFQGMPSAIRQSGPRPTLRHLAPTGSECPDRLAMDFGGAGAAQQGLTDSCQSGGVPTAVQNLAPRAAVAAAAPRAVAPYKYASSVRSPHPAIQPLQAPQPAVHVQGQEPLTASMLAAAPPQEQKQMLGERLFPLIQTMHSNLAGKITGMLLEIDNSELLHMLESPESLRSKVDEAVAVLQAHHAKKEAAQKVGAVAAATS
Chain of XRN1 (Q8IZH2 whole entry): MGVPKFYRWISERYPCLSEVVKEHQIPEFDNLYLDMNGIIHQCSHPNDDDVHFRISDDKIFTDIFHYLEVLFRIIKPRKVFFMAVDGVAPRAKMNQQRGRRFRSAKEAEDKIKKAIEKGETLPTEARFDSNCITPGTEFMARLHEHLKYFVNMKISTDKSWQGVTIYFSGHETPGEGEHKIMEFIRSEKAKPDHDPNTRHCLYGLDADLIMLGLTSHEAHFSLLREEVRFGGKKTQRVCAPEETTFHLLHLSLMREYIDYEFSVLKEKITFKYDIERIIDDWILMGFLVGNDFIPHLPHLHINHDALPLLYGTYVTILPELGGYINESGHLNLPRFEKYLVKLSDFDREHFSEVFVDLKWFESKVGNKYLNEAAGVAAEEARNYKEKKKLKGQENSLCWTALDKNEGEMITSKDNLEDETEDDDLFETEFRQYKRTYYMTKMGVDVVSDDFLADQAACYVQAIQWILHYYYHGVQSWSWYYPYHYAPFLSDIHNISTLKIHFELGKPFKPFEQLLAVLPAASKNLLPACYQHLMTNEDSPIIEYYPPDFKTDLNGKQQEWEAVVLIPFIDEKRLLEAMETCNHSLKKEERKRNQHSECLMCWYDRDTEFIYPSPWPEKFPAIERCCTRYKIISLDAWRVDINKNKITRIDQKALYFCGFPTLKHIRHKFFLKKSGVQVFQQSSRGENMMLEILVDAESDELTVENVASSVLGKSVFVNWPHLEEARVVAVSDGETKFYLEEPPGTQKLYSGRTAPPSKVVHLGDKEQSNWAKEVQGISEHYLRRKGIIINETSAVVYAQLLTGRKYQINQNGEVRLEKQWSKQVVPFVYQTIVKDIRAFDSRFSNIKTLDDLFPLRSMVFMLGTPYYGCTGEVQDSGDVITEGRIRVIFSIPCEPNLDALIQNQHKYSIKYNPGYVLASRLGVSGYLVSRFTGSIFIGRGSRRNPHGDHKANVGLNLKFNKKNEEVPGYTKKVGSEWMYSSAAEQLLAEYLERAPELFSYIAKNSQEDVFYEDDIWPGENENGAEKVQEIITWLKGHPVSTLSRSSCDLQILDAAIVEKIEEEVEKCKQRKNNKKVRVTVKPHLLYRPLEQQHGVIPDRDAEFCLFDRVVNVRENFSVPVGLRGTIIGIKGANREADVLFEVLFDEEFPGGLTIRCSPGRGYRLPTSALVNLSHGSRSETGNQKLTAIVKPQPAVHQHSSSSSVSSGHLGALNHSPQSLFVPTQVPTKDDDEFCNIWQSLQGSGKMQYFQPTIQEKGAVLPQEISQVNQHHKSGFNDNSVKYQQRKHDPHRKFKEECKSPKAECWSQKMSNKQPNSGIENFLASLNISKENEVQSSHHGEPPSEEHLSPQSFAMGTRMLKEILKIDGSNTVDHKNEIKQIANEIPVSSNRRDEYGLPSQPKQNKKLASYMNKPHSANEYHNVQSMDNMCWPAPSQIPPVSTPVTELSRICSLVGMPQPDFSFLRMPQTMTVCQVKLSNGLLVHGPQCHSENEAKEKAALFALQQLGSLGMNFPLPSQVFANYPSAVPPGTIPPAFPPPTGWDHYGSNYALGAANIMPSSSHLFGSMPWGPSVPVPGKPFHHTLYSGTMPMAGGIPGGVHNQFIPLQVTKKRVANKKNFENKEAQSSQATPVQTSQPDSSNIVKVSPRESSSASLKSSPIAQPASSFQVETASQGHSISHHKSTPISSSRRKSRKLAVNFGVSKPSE

Usually EC50 stands for the concentration needed to bring the measured effect to its halfway point. Read a low EC50 as higher potency in that assay. Turning to AAUAAA, the EC50 with RBM7 came to 1930 nM; with HNRNPDL it was 2090 nM; in the data set with PABPC4 it was 4280 nM; in the data set with RBMS1, 1570 nM; in the data set with LSM4, 465 nM; with CSTF2, 83.9 nM. Moreover, the EC50 with LSM7 is 655 nM; with XRN1 it was 440 nM.

Consider UAUUUAU, for which the EC50 was 312 nM in the data set with RBM7; 3480 nM with HNRNPDL; 13600 nM with PABPC4; 458 nM with RBMS1; 599 nM with LSM4; 463 nM in the data set with CSTF2. Further, the figures for the EC50 in the data set with LSM7 and with XRN1 were 302 nM and 196 nM, respectively.

The values above are taken from the supplement of paper PMC6379048.
